Results from the supplement of paper PMC10567573.

B1: HESX1 (parent)
chain: SKYENYFSASERLSLKRELSWYRG

Variants of: B1
Assay: protein stability index of a GFP-peptide fusion (GPS, HEK-293T) (PSI 1-6); higher = more stable
Conditions: c terminus: a fixed tail appended
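Also: lentivirally expressed fusions sorted by FACS into six bins by GFP to DsRed ratio, PSI derived from sequencing read proportions per bin multiplied by bin number.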

Variant	protein stability index
SFYENYFSASERLSLKRELSWYRG	1.57
SAYENYFSASERLSLKRELSWYRG	2.09
SPYENYFSASERLSLKRELSWYRG	1.96
SGYENYFSASERLSLKRELSWYRG	2.31
SMYENYFSASERLSLKRELSWYRG	1.7
SCYENYFSASERLSLKRELSWYRG	2.23
SYYENYFSASERLSLKRELSWYRG	1.81
SQYENYFSASERLSLKRELSWYRG	2.65
SRYENYFSASERLSLKRELSWYRG	1.64
SEYENYFSASERLSLKRELSWYRG	2.05
SHYENYFSASERLSLKRELSWYRG	1.8
SSYENYFSASERLSLKRELSWYRG	1.82
SDYENYFSASERLSLKRELSWYRG	2.19
SVYENYFSASERLSLKRELSWYRG	1.77
SIYENYFSASERLSLKRELSWYRG	1.45
STYENYFSASERLSLKRELSWYRG	2.34
SLYENYFSASERLSLKRELSWYRG	1.25
SKYENYFSASERFSLKRELSWYRG	1.65
SKYENYFSASERESLKRELSWYRG	2.3
SKYENYFSASERMSLKRELSWYRG	1.63
SKYENYFSASERKSLKRELSWYRG	1.9
SKYENYFSASERDSLKRELSWYRG	3.44
SKYENYFSASERGSLKRELSWYRG	1.93
SKYENYFSASERNSLKRELSWYRG	2.31

Variant	protein stability index
SKYENYFSASERPSLKRELSWYRG	2.35
SKYENYFSASLRLSLKRELSWYRG	2.11
SKYENYFSASHRLSLKRELSWYRG	2.76
SKYENYFSASNRLSLKRELSWYRG	2
SKYENYFSASYRLSLKRELSWYRG	1.75
SKYENYFSASDRLSLKRELSWYRG	2.39
SKYENYFSASQRLSLKRELSWYRG	2.49
SKYENYFSASKRLSLKRELSWYRG	2.04
SKYENYFSASGRLSLKRELSWYRG	1.55
SKYENYFSASIRLSLKRELSWYRG	1.71
SKYENYFSASTRLSLKRELSWYRG	1.67
SKYENYFSASVRLSLKRELSWYRG	2.37
SKYENYFSASARLSLKRELSWYRG	1.57
SKYENDFSASERLSLKRELSWYRG	2.91
SKYENVFSASERLSLKRELSWYRG	1.27
SKYENAFSASERLSLKRELSWYRG	2.85
SKYENHFSASERLSLKRELSWYRG	2.25
SKYENTFSASERLSLKRELSWYRG	2.63
SKYENMFSASERLSLKRELSWYRG	2.15
SKYENFFSASERLSLKRELSWYRG	2.88
SKYENCFSASERLSLKRELSWYRG	1.84
SKYENEFSASERLSLKRELSWYRG	2.3
SKYENLFSASERLSLKRELSWYRG	2.85
SKYENGFSASERLSLKRELSWYRG	2.56

Variant	protein stability index
SKYENRFSASERLSLKRELSWYRG	1.84
SKYENQFSASERLSLKRELSWYRG	1.96
SKYENSFSASERLSLKRELSWYRG	2.16
SKYENKFSASERLSLKRELSWYRG	2.05
SKYENNFSASERLSLKRELSWYRG	2.79
SKYYNYFSASERLSLKRELSWYRG	2.33
SKYDNYFSASERLSLKRELSWYRG	2.45
SKYMNYFSASERLSLKRELSWYRG	2.02
SKYVNYFSASERLSLKRELSWYRG	2.1
SKYPNYFSASERLSLKRELSWYRG	2.06
SKYGNYFSASERLSLKRELSWYRG	2.13
SKYINYFSASERLSLKRELSWYRG	1.26
SKYANYFSASERLSLKRELSWYRG	1.61
SKYSNYFSASERLSLKRELSWYRG	1.27
SKYCNYFSASERLSLKRELSWYRG	2.24
SKYLNYFSASERLSLKRELSWYRG	2.23
SKYRNYFSASERLSLKRELSWYRG	2.54
SKYHNYFSASERLSLKRELSWYRG	1.17
SKYNNYFSASERLSLKRELSWYRG	1.71
SKYQNYFSASERLSLKRELSWYRG	1.56
SKYTNYFSASERLSLKRELSWYRG	2.98
SKMENYFSASERLSLKRELSWYRG	1.59
SKKENYFSASERLSLKRELSWYRG	3.46
SKRENYFSASERLSLKRELSWYRG	2.13

Variant	protein stability index
SKPENYFSASERLSLKRELSWYRG	1.66
SKLENYFSASERLSLKRELSWYRG	1.97
SKFENYFSASERLSLKRELSWYRG	1.48
SKQENYFSASERLSLKRELSWYRG	1.61
SKGENYFSASERLSLKRELSWYRG	2.75
SKSENYFSASERLSLKRELSWYRG	2.97
SKIENYFSASERLSLKRELSWYRG	2.26
SKNENYFSASERLSLKRELSWYRG	1.72
SKDENYFSASERLSLKRELSWYRG	2.29
SKCENYFSASERLSLKRELSWYRG	1.79
SKVENYFSASERLSLKRELSWYRG	3.67
CKYENYFSASERLSLKRELSWYRG	2.04
IKYENYFSASERLSLKRELSWYRG	1.61
MKYENYFSASERLSLKRELSWYRG	1.36
HKYENYFSASERLSLKRELSWYRG	2.34
NKYENYFSASERLSLKRELSWYRG	1.74
YKYENYFSASERLSLKRELSWYRG	2.77
AKYENYFSASERLSLKRELSWYRG	1.71
GKYENYFSASERLSLKRELSWYRG	1.9
LKYENYFSASERLSLKRELSWYRG	2.06
EKYENYFSASERLSLKRELSWYRG	1.76
KKYENYFSASERLSLKRELSWYRG	1.4
